From PMC6066304

Molecular target: Arabidopsis thaliana plant cysteine oxidase 5 (Arabidopsis thaliana) (UniProt Q9LXT4)
UniProt Q9LXT4, sequence (Q9LXT4 whole entry): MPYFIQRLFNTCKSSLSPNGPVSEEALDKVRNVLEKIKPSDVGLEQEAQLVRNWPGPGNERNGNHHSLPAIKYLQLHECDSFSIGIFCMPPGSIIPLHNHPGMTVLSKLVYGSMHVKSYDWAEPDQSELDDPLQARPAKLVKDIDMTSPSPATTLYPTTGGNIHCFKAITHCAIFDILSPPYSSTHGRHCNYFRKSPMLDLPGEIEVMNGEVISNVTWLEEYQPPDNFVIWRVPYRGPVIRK

Km for AtRAP2(2–15); initial rates of N-terminal cysteine oxidation by LC-MS, Michaelis–Menten fit with substrate inhibition, atmospheric O2, pH 8.0, 25 °C: 0.16 mM
Substance: AtRAP2(2–15), 14-amino acid peptide corresponding to the methionine excised N terminus of AtRAP2.2 and AtRAP2.12
